# Measurements reported in patent US20160083711.
# Tested on: fluorogenic peptide (MCA)Lys-Lys-Pro-Ala-Glu-Phe-Phe-Ala-Leu-Lys(DNP)
# native cardosin B, sequence (chain, as listed by the source): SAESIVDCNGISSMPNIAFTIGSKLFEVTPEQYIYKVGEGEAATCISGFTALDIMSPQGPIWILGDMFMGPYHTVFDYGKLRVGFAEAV
substance,measurement,value
native cardosin B,Km,1.4 µM
same,VMax,6.36e-06 µmol/s
same,kcat,24 s⁻¹
same,kcat/Km,1.71e+07 M⁻¹ s⁻¹
